Legend:
[1] = target: T1, CCR1 on HEK293 cells / HEK293 membranes stably expressing CCR1 (UniProt P32246 1-355, limits assumed); experiment: SPA competition assay, HEK293 cells/membranes expressing CCR1; competitor (tracer) 125I-CCL3
T1 construct: whole, on cells; also called chemokine receptor CCR1
T1 sequence (looked up): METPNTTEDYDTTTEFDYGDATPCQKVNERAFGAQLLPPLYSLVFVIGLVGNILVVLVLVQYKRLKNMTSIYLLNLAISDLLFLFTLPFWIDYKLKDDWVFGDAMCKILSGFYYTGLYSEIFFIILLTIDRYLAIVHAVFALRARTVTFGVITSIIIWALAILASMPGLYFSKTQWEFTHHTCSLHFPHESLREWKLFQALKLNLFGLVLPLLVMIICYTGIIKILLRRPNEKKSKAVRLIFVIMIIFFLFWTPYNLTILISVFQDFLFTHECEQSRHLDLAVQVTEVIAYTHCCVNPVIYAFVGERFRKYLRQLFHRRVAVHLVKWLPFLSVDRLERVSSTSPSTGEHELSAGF
Method: (§1) Scintillation proximity assay (SPA) binding assays (GE Healthcare, Piscataway, N.J.) were conducted essentially as previously described. HEK293 cells stably expressing CCR1 were used for these assays, and untransfected HEK293 cells were used as a control. Assays were undertaken in a 96-well plate format and each data point was assayed in triplicate on a Microbeta plate counter (Perkin Elmer) for 1 min per well. Each well contained 20,000 cells, 0.2 mg WGA-PVT-SPA beads, increasing concentrations of unlabeled competitor chemokine, and either […] ¹²⁵I-CCL3 or […] ¹²⁵I-Streptavidin +400 pM CCL3-Biotin, in a total volume of 100 μL. IC₅₀ values were obtained by nonlinear regression curve fitting using Prism software (GraphPad, La Jolla, Calif.).
(§2) In order to test the use of ¹²⁵I-streptavidin as a surrogate radiolabel in a chemokine SPA assay, competition assays using membranes containing the chemokine receptor CCR1 were performed. CCL3 was used for these assays because ¹²⁵I-CCL3 is commercially available, allowing for a direct comparison. After immobilization of membranes to SPA beads, either radiolabeled chemokine, or a combination of biotinylated chemokine and ¹²⁵I-labeled streptavidin was added. […] In contrast, no binding of CCL3 or competition with CCL14 was observed when CCR1-expressing membranes were replaced with untransfected HEK293 membranes. […]

[2] = target: T1, CCR1 on HEK293 cells / HEK293 membranes …; experiment: SPA competition assay, HEK293 cells/membranes expressing CCR1; competitor (tracer) CCL3-biotin with 125I-streptavidin
Method: as §1, §2

IC50 [1]: 2.6 nM | IC50 [2]: 0.9 nM
B1: CCL14 (unlabeled; functional form containing residues 9-74) (ligand)
chain: GPYHPSECCFTYTTYKIPRQRIMDYYETNSQCSKPGIVFITKRGHSVCTNPSDKWVQDYIKDMKEN
notes: Whether the entry is already trimmed to 9-74 is so no residue range is applied; Expressed as a His-ubiquitin fusion and cleaved with Usp2-cc to leave the native N-terminus; also called CCL14/HCC-1; HCC-1 (9-74)
